Source: patent US20130084301A1

What was measured:
[1] = molecular target: CD81 (UniProt P60033); assay: cell-based or functional assay
[2] = molecular target: E2 of genotype 1a HCVcc (hepatitis C virus genotype 1a); assay: cell-based or functional assay
[3] = molecular target: HCV E2 glycoprotein, genotype 1a (H77c) (hepatitis C virus genotype 1a, H77c) (UniProt P27958)

Chain of CD81 (P60033 whole entry): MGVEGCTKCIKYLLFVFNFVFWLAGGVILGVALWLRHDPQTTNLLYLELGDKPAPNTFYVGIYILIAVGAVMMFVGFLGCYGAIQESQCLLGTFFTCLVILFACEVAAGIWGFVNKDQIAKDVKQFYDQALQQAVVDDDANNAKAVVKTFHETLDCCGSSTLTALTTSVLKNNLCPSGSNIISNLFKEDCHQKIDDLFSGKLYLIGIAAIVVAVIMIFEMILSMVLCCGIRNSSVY

Substance | reduction in viral infectivity, mutant 1a HCVpp (luciferase) [1] | 50% inhibition, neutralization of 1a HCVcc [2] | % reduction of E2 binding to CD81 [3]
HCV 1a E2 with alanine substitution at 420 (from UniProt P27958 384-746) | > 95% |  | 
CBH-5 (antibody) |  | > 100 µg/mL | > 90%
HCV 1a E2 with alanine substitution at 442 (from UniProt P27958 384-746) | > 95% |  | 
HCV 1a E2 with alanine substitution at 428 (from UniProt P27958 384-746) | 84% |  | 
HCV 1a E2 with alanine substitution at 429 (from UniProt P27958 384-746) | > 95% |  | 
HCV 1a E2 with alanine substitution at 613 (from UniProt P27958 384-746) | > 95% |  | 
HCV 1a E2 with alanine substitution at 443 (from UniProt P27958 384-746) | 79% |  | 
HCV 1a E2 with alanine substitution at 437 (from UniProt P27958 384-746) | > 95% |  | 
HCV 1a E2 with alanine substitution at 616 (from UniProt P27958 384-746) | > 95% |  | 
HCV 1a E2 with alanine substitution at 446 (from UniProt P27958 384-746) | 60% |  | 
HCV 1a E2 with alanine substitution at 441 (from UniProt P27958 384-746) | > 95% |  | 
